# Measured values as given in publication PMC7333892, “Identification of a PGXPP degron motif in dishevelled and structural basis for its binding to the E3 ligase KLHL12” (Open Biology, 2020).
# Entries after “also recorded” stand apart in the source; their conditions may differ. Where no end group is shown, it is not given here. The star is where a group is joined. FITC = O=C1OC2(c3ccc(O)cc3Oc3cc(O)ccc32)c2ccc(NC(=S)*)cc21
# T1: KLHL12 Kelch domain (Homo sapiens, UniProt Q53G59)
# T1 construct: Human KLHL12 Kelch domain (Uniprot Q53G59-1, residues 268–567); His6 (N); made in house; host or cells: E. coli BL21(DE3)-R3-pRARE, vector pNIC28-Bsa4 (Addgene_38908)
# T1 sequence (Q53G59 268-567): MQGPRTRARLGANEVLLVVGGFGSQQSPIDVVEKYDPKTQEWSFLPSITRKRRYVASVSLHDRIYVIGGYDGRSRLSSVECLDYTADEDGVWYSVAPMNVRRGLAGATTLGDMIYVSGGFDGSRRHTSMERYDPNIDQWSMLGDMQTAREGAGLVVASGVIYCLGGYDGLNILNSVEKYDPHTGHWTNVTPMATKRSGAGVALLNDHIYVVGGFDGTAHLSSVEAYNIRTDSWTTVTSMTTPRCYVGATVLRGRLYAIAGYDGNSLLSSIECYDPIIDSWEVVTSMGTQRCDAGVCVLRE
# T2: Human KLHL12 Kelch domain (residues 268-567) (human, UniProt Q53G59-1 268-567)
# T2 construct: KLHL12 Kelch domain, human, Uniprot Q53G59-1, residues 268-567; the structure traces residues 279-567; The His6 tag is kept in the SPOT arrays (detected with anti-His antibody); Expressed from the vector pNIC28-Bsa4; also called 6 x His-KLHL12 Kelch domain; His6-tagged KLHL12 Kelch domain
# T2 sequence (looked up): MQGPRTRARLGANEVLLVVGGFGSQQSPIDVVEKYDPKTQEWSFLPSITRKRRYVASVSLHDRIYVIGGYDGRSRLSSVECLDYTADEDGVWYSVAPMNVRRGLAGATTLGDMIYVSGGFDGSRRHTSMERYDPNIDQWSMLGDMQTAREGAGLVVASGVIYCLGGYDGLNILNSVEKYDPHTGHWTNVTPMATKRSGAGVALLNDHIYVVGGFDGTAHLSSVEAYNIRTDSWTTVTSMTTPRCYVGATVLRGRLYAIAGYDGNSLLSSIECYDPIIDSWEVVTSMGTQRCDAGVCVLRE
# Tests used:
# KLHL12 Kelch domain = target: T1, KLHL12 Kelch domain; test: Fluorescence polarization peptide binding to KLHL12; details: N-terminal FITC-labelled peptide 40 nM, 50 mM HEPES pH 7.5, 300 mM NaCl, 0.5 mM TCEP, 0.01% Triton-X, mean, n = 3
# Method: Human KLHL12 Kelch domain (Uniprot Q53G59-1, residues 268–567) and KLHL7 Kelch domain (Uniprot Q8IXQ5-1, residues 283–586) were expressed from the vector pNIC28-Bsa4 in BL21(DE3)-R3-pRARE cells and purified by nickel affinity and size exclusion chromatography as described previously. Both plasmids are deposited in addgene (RRID:Addgene_38908 and RRID:Addgene_39023, respectively).
# Fluorescence polarization assays were performed in 384-well plates using a Synergy 2 microplate reader (BioTek) with excitation and emission wavelengths of 485 nm and 528 nm, respectively. Peptides were synthesized, N-terminally labelled with FITC and purified by Tufts University Core Services (Boston, MA). Binding assays were performed in 10 µl volume at a constant labelled peptide concentration of 40 nM and indicated Kelch domain protein concentrations in a buffer containing 50 mM HEPES, pH 7.5, 300 mM NaCl, 0.5 mM TCEP and 0.01% Triton-X. Binding data were corrected for background of the free labelled peptides (no protein). For KD determination, data were fitted to a hyperbolic function using Sigma Plot software (Systat Software, San Jose CA). KD values represent mean ± S.E. (n = 3).
# DVL1 = DVL1 stabilization by MLN4924 in HEK293T cells co-transfected with KLHL12; type: cell-based; details: western blot
# Method: (§1) We further investigated whether the ‘PGGPP' motif regulates the KLHL12-dependent degradation of DVL1. WT and mutant DVL1 constructs were therefore transfected into HEK293T cells in the presence or absence of full-length KLHL12. […] By contrast, the levels of the DVL1 mutants were unchanged by KLHL12 co-expression.
# (§2) Full-length Flag-KLHL12 and HA-DVL1 constructs were transfected into HEK293T cells at 60% confluency with polyethylenimine. 40 h after transfection, cells were treated with cycloheximide (CHX) for 1 h or MLN4924 for 4 h and then harvested and lysed. Protein levels were analysed by Western blotting (anti-Flag antibody, Sigma-Aldrich, F1804; RRID:AB_262044 and anti-HA antibody, Biolegend, 901501; RRID:AB_2565006).
# [1] = target: T2, Human KLHL12 Kelch domain (residues …); test: peptide or protein array; initial DVL1 SPOT array: 20-mer peptides on cellulose membrane, incubated with 0.4 µM His6-tagged Kelch domain protein in PBS for 1 h at 4°C, bound protein detected with HRP-conjugated anti-His antibody; details: both partners purified
# [2] = target: T2, Human KLHL12 Kelch domain (residues …); test: fluorescence polarisation; 40 nM FITC-labelled peptide, Kelch domain protein titrated; 50 mM HEPES pH 7.5, 300 mM NaCl, 0.5 mM TCEP, 0.01% Triton-X; hyperbolic fit, n = 3; details: both partners purified
# [3] = test system: full-length Flag-tagged KLHL12; test: Co-immunoprecipitation of HA-DVL1 variants with Flag-KLHL12 in HEK293T cells; type: cell-based; details: MLN4924 4 h, anti-Flag immunoprecipitation, western blot
# Method: To validate the identified ‘PGGPP' sequence as degron motif for DVL1 recruitment and degradation by the KLHL12, we tested the binding, ubiquitination and stability of DVL1 in HEK293T cells. Two variants of full-length HA-tagged DVL1 were prepared in which the 657-‘PPGGPP' motif was either mutated to ‘AAAAAA' or deleted. Immunoprecipitation of the complex using full-length Flag-tagged KLHL12 was performed in cells treated with the neddylation inhibitor MLN4924 to ensure the stability of all transfected DVL1 variants. […] To confirm that the interaction promoted DVL1 ubiquitination, we next transfected Flag-tagged KLHL12 and HA-DVL1 variants into cells pretreated with the proteasome inhibitor MG132. DVL1 was immunoprecipitated by anti-HA agarose and its ubiquitination status probed by immunoblotting for the presence of high molecular weight poly-ubiquitin conjugates. A marked reduction in the ubiquitination of the two DVL1 mutants was observed compared to wild-type consistent with the importance of the ‘PGGPP' motif for KLHL12 recruitment (figure 5b). […]
# Full-length DVL1 variants (Uniprot O14640-1) and KLHL12 were subcloned into a pcDNA3 vector, with N-terminal HA tag and Flag tag, respectively. […] Results were analysed using western blotting (Anti-Flag antibody, Sigma-Aldrich, F1804; RRID:AB_262044; Anti-HA antibody, Biolegend, 901501; RRID:AB_2565006).
# full-length KLHL12 = test: Stability assay of DVL1 variants with or without KLHL12 in HEK293T cells; type: cell-based; details: KLHL12 co-expression versus DVL1 alone, cycloheximide 1 h, western blot, GAPDH loading control
# Method: as §1, §2
# KLHL12 = details: parallel study, ref [36] Zhao et al.; cited from earlier work
# Excerpt: The omitted proline position is substituted by a glycine or alanine in pa ...
molecule,measurement,setting,value
CC(C)C[C@H](NC(=O)[C@H](CCC(=O)O)NC(=O)[C@H](CCCNC(=N)N)NC(=O)[C@@H](NC(=O)[C@@H]1CCCN1C(=O)[C@@H]1CCCN1C(=O)CNC(=O)CNC(=O)[C@@H]1CCCN1C(=O)[C@@H]1CCCN1C(=O)CNC(=O)CNC(=O)[C@@H](NC(=O)[C@@H](NC(=O)[C@@H](NC(=O)[C@H](Cc1ccc(O)cc1)NC(=O)[C@H](C)N)[C@@H](C)O)C(C)C)C(C)C)C(C)C)C(=O)N[C@@H](C)C(=O)N[C@@H](C)C(=O)N[C@H](C(=O)O)C(C)C [Spot A13],Kd,KLHL12 Kelch domain,22.3 µM
NS(=O)(=O)OC[C@@H]1C[C@@H](n2ccc3c(N[C@H]4CCc5ccccc54)ncnc32)C[C@@H]1O [MLN4924],stability of DVL1 WT on MLN4924,"DVL1; HEK293T cells co-transfected with DVL1 WT and KLHL12, MLN4924 4 h",stabilized DVL1 WT; also recorded: rescued the stability of DVL1 WT
same,stability of DVL1 mutants on MLN4924,"DVL1; HEK293T cells co-transfected with DVL1 mutants and KLHL12, MLN4924 4 h",not DVL1 mutants
"AYTVVGGPPGGPPVRELAAV (peptide, UniProt O14640-1 650-669, looked up, source: synthetic peptide, synthesized directly on a modified cellulose membrane with a polyethylglycol linker (SPOT)) [DVL1 20-mer peptide, residues 650-669, printed on the SPOT array (spot A13)]",binding result,[1],binds
"{FITC}-AYTVVGGPPGGPPVRELAAV (peptide, UniProt O14640-1 650-669, looked up, source: synthetic peptide (Tufts University Core Services), purified) [FITC-labelled DVL1 peptide, residues 650-669]",Kd,[2],22.3 µM
"DVL1 WT: full-length HA-tagged wild-type DVL1 expressed in cells (protein, left off: HA, N-terminal, kept, full-length HA-tagged wild-type DVL1 expressed in cells) MAETKIIYHMDEEETPYLVKLPVAPERVTLADFKNVLSNRPVHAYKFFFKSMDQDFGVVKEEIFDDNAKLPCFNGRVVSWLVLAEGAHSDAGSQGTDSHTDLPPPLERTGGIGDSRPPSFHPNVASSRDGMDNETGTESMVSHRRERARRRNREEAARTNGHPRGDRRRDVGLPPDSASTALSSELESSSFVDSDEDGSTSRLSSSTEQSTSSRLIRKHKRRRRKQRLRQADRASSFSSITDSTMSLNIVTVTLNMERHHFLGISIVGQSNDRGDGGIYIGSIMKGGAVAADGRIEPGDMLLQVNDVNFENMSNDDAVRVLREIVSQTGPISLTVAKCWDPTPRSYFTVPRADPVRPIDPAAWLSHTAALTGALPRYGTSPCSSAVTRTSSSSLTSSVPGAPQLEEAPLTVKSDMSAVVRVMQLPDSGLEIRDRMWLKITIANAVIGADVVDWLYTHVEGFKERREARKYASSLLKHGFLRHTVNKITFSEQCYYVFGDLCSNLATLNLNSGSSGTSDQDTLAPLPHPAAPWPLGQGYPYQYPGPPPCFPPAYQDPGFSYGSGSTGSQQSEGSKSSGSTRSSRRAPGREKERRAAGAGGSGSESDHTAPSGVGSSWRERPAGQLSRGSSPRSQASATAPGLPPPHPTTKAYTVVGGPPGGPPVRELAAVPPELTGSRQSFQKAMGNPCEFFVDIM",binding of DVL1 to KLHL12 (immunoprecipitation),[3],bound robustly
same,binding of DVL1 to KLHL12 (immunoprecipitation),[3]; listed as Wild-type (WT) DVL1,bound robustly to KLHL12
same,DVL1 protein level / stability,full-length KLHL12,striking reduction in the DVL1 protein level
"DVL3 (Zhao et al.): DVL3, KLHL12 binding by NMR in a parallel study by Zhao et al. (protein, UniProt Q92997 1-716, looked up) Segment polarity protein …: MGETKIIYHLDGQETPYLVKLPLPAERVTLADFKGVLQRPSYKFFFKSMDDDFGVVKEEISDDNAKLPCFNGRVVSWLVSAEGSHPDPAPFCADNPSELPPPMERTGGIGDSRPPSFHPHAGGGSQENLDNDTETDSLVSAQRERPRRRDGPEHATRLNGTAKGERRREPGGYDSSSTLMSSELETTSFFDSDEDDSTSRFSSSTEQSSASRLMRRHKRRRRKQKVSRIERSSSFSSITDSTMSLNIITVTLNMEKYNFLGISIVGQSNERGDGGIYIGSIMKGGAVAADGRIEPGDMLLQVNEINFENMSNDDAVRVLREIVHKPGPITLTVAKCWDPSPRGCFTLPRSEPIRPIDPAAWVSHTAAMTGTFPAYGMSPSLSTITSTSSSITSSIPDTERLDDFHLSIHSDMAAIVKAMASPESGLEVRDRMWLKITIPNAFIGSDVVDWLYHNVEGFTDRREARKYASNLLKAGFIRHTVNKITFSEQCYYIFGDLCGNMANLSLHDHDGSSGASDQDTLAPLPHPGAAPWPMAFPYQYPPPPHPYNPHPGFPELGYSYGGGSASSQHSEGSRSSGSNRSGSDRRKEKDPKAGDSKSGGSGSESDHTTRSSLRGPRERAPSERSGPAASEHSHRSHHSLASSLRSHHTHPSYGPPGVPPLYGPPMLMMPPPPAAMGPPGAPPGRDLASVPPELTASRQSFRMAMGNPSEFFVDVM",binding to KLHL12 by NMR,KLHL12,confirmed the binding
